The record followed here is PMC3142112, “Rationally Designed Turn Promoting Mutation in the Amyloid-β Peptide Sequence Stabilizes Oligomers in Solution” (PLoS ONE, 2011).

Holding throughout (assay type): physicochemical
Data set [1] is described as follows: Atomic force microscopy of peptide preparations. The conditions noted are these: 25 µM peptide adsorbed 10 min onto silicon wafers, tapping mode.
Protocol: High-resolution analysis of the peptide solution preparations were carried out using atomic force microscopy (AFM).
AFM topography images were acquired in the light tapping mode regime using a Multimode AFM (Veeco, USA). Resonant frequencies of the uncoated silicon tips (MikroMasch, USA) were roughly 150 kHz, with scan rates around 5–8 µm/s. Peptide samples were prepared using the protocol described above and diluted to 25 µM before application. Peptide solutions were adsorbed by incubating onto Pirahna cleaned silicon wafers with molecular smoothness (∼1 Å RMS roughness) as determined by AFM. After incubating for 10 min, the wafers are gently washed repeatededly with MilliQ water.
Data set [2] in a line: Thioflavin T fluorescence (aggregation / mature fibril formation). The note with it: 25 µM fibrils (Aβ42WT) or SEC-eluted mutant oligomers, 5 µM ThT, 2 h incubation, excitation 440 nm, emission 480 nm, 25°C. The procedure:
Thioflavin T fluorescence was used to assess aggregation and mature fibril formation as β-sheet content is directly correlated with fluorescence intensity of the dye.
Mean residue ellipticity (θ) was determined according to the equation θ = θObs • MRW/(10 • l • c); where θObs is observed ellipticity, MRW is mean residue weight of the peptide, c is peptide concentration (g/L), and l is optical path length (cm). The thioflavin T (ThT) binding studies of Aβ42WT and mutant peptides were carried out by incubating precipitated fibrils of the Aβ42WT or eluted oligomer preparation from the SEC column. The 25 µM amyloid fibrils (Aβ42WT) or oligomers of mutant were mixed with 5 µM of ThT dye concentration. After 2 h incubation, the fluorescence of the sample solutions were recorded by exciting at 440 nm and the intensity at 480 nm is monitored using Perkin-Elmer LC 55B spectrofluorimeter. The bandwidths of excitation/emission wavelengths were 5 nm/each.

The nature of data set [3]: One-dimensional 1H NMR of peptide preparations (soluble versus aggregated state). The note with it: 10% DMSO/PBS.
Protocol: All peptides were used as supplied. Solution samples of the peptides were prepared as follows. Peptides were dissolved in 1,1,1,3,3,3-hexafluoro-2-propanol (HFIP) to concentrations of 1 mM HFIP, evaporated over nitrogen, and then dried in a Savant Speed Vac for 1 hr. The resultant peptide films were further kept under vacuum for a few hours to remove solvent traces. The films were stored at −80°C until use. Peptide films were dissolved to ∼0.5 mM concentrations in 10% d6-DMSO/10 mM PBS buffer to a final pH of 7.2. The solutions were incubated at 4°C for 12 hours, and then transferred to 37°C for 4 hours. The resulting solutions were centrifuged at 13000 rpm in a desktop centrifuge (Eppendorf) at 4°C for 30 min to remove any precipitated gel-form of the peptides. After centrifugation, the peptide concentrations were adjusted to 0.4 mM (concentrations were checked by UV visible spectroscopy), 0.05% sodium azide added as a bacteriostat and transferred to 5 mm NMR tubes. […]
NMR spectra were acquired at the Stanford Magnetic Resonance Laboratory on a Bruker Avance 500 MHz spectrometer running TopSpin v1.3 and equipped with a 5 mm H{CN} Z-axis gradient CryoProbe. […] The data was processed in TopSpin and analyzed with SPARKY [38].
A short description of data set [4]: Circular dichroism spectroscopy (conformation / fibril development). The procedure: Conformational analyses of the mutant and Aβ42WT peptides were also carried out by Circular Dichroism (CD) spectroscopy.
The fibrils from the Aβ42WT preparation were centrifuged at 12000 rpm for 15 min to separate from any remaining monomer and the pellet was re-suspended in 10 mM phosphate pH 7.2 for CD measurement. CD measurements were performed using a 0.1 mm path length quartz cell in an Aviv 62A DS Circular Dichroism spectrometer (Aviv Associates, Lakewood, NJ) at 22°C.
The thioflavin T (ThT) binding studies of Aβ42WT and mutant peptides were carried out by incubating precipitated fibrils of the Aβ42WT or eluted oligomer preparation from the SEC column. The 25 µM amyloid fibrils (Aβ42WT) or oligomers of mutant were mixed with 5 µM of ThT dye concentration. After 2 h incubation, the fluorescence of the sample solutions were recorded by exciting at 440 nm and the intensity at 480 nm is monitored using Perkin-Elmer LC 55B spectrofluorimeter. The bandwidths of excitation/emission wavelengths were 5 nm/each.
(In general: CD spectra are sensitive to the conformation of chiral molecules.)

“Aβ42WT: wild type form of Aβ42, recombinant purified, unlabeled and 15N-labeled, from rPeptide”: in data set [1], the “mean globular structure height (AFM)” value is on record as 4.32 nm. In data set [2], the “Thioflavin T fluorescence of Aβ42WT compared to Aβ42Nle35p37” value is recorded as “about four”. For the same substance, in data set [3] (0.4 mM), the “species formed in preparation” value was “formed fibrils”. Besides, the “state in solution by 1D 1H NMR (amide/aromatic region)” value in data set [3] (pH 7.2, 25°C, samples prepared in the same manner) is recorded as “very little observable signal”. Besides, the “conformation by CD spectrum” value in data set [4] (0.1 mm path length cell, WT fibril pellet in 10 mM phosphate pH 7.2, mutant SEC-eluted) was “β-sheet rich, mature fibrils”. Moreover, the “period over which aggregate develops into β-sheet rich, mature fibrils (CD)” value in data set [4] (PBS buffer, absorbance at ∼220 nm) was found to be 12 h.
